PMC11480844 (2024)

B1: H2-Kb / Ed10 (parent complex)
chain 1: GEQVEQRPPHLSVREGDSAFIICTYTDSATAYFYWYKQEPGAGLQLLMSVFSNVDRKEEQGLTVLLNKKDKRLSLNLTAAHPGDSAVYFCAVRGTGYQNFYFGKGTSLTVIP
chain 2: AQTIHQWPVAEIKAVGSPLSLGCTIKGKSSPNLYWYWQATGGTLQQLFYSITVGQVESVVQLNLSASRPKDDQFILSTEKLLLSHSGFYLCAWSPGYEQYFGPGTRLTVL
chain 3: not shown
chain 4: IQKTPQIQVYSRHPPENGKPNILNCYVTQFHPPHIEIQMLKNGKKIPKVEMSDMSFSKDWSFYILAHTEFTPTETDTYACRVKHDSMAEPKTVYWDRDM
chain 5: SIINFEKL

Variants of: B1
Test: % of reporter cells activated (NFAT-GFP), raw; also: test concentration or dose not given here

ratio to parent	Variant
0.829	chain 5 I3T
0.826	chain 5 I3Q
0.368	chain 5 I3Y
0.828	chain 5 I3H
0.927	chain 5 I3V
0.916	chain 5 I3E
0.96	chain 5 I3A
0.691	chain 5 I3D
0.683	chain 5 I3N
0.828	chain 5 I3K
0.937	chain 5 L8G
0.864	chain 5 L8I
0.897	chain 5 L8Q
0.949	chain 5 L8R
0.81	chain 5 L8T
0.803	chain 5 L8D
0.838	chain 5 L8F
0.88	chain 5 L8K
0.921	chain 5 L8C
0.79	chain 5 K7G
0.461	chain 5 K7L
0.685	chain 5 K7P
0.102	chain 5 K7T
0.184	chain 5 K7F
0.143	chain 5 K7C

ratio to parent	Variant
0.355	chain 5 K7D
0.495	chain 5 K7A
0.28	chain 5 K7M
0.601	chain 5 K7W
0.563	chain 5 K7V
0.00197	chain 5 K7I
0.354	chain 5 N4Y
0.353	chain 5 N4A
0.00517	chain 5 N4V
0.728	chain 5 N4L
0.0998	chain 5 N4G
0.342	chain 5 N4K
0.977	chain 5 S1A
0.914	chain 5 S1L
0.72	chain 5 S1R
0.931	chain 5 S1Q
1.01	chain 5 S1T
1	chain 5 S1Y
0.726	chain 5 S1F
0.938	chain 5 S1D
1.02	chain 5 I2T
0.973	chain 5 I2P
0.939	chain 5 I2G
0.962	chain 5 I2V
0.915	chain 5 I2H

ratio to parent	Variant
0.898	chain 5 I2Y
0.751	chain 5 I2W
0.907	chain 5 I2C
0.00556	chain 5 E6C
0.503	chain 5 E6Y
0.045	chain 5 E6P
0.00924	chain 5 E6W
0.0734	chain 5 E6F
0.0198	chain 5 E6A
0.377	chain 5 E6H
0.0435	chain 5 E6R
0.557	chain 5 E6D
0.878	chain 5 E6K
0.0352	chain 5 E6N
0.879	chain 5 F5Q
0.775	chain 5 F5V
0.581	chain 5 F5G
0.78	chain 5 F5E
0.711	chain 5 F5N
1.03	chain 5 F5Y
0.815	chain 5 F5I
0.958	chain 5 F5M
0.815	chain 5 F5R
0.876	chain 5 F5H
0.764	chain 5 F5S
